For this data set, the target named is T1, 6xHis-OxyR (Salmonella enterica serovar Typhi ISP1820) (UniProt Q8XF66).
T1 sequence: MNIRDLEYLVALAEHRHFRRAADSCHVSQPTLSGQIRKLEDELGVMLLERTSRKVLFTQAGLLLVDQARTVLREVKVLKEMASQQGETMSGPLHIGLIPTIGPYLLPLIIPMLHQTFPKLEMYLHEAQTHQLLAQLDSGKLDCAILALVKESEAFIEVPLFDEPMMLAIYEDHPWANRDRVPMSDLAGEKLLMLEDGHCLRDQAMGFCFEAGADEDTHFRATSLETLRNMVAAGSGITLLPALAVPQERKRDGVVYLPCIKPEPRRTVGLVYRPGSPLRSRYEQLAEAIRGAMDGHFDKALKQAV
Nature of the data set: EMSA. As to conditions: EMSA with 10 nM probe, 5% acrylamide gel, RedSafe stain; buffer, salt, pH and temperature not given (as previously described, ref 27).

For the sequence “GAAATCGGGCGTGGCATTCTGATTACTCAACAGTAATTCACGAACCCTTTTCTCGATCTCTTTCGCTGTCGCCGGGTTCTCTTTCAGCCAGGTAGTCGCGTTCGCTTTACCCTGGCCAATCTTCT (double strand) [recA]”, the binding entry is “no binding”.

Values taken from publication PMC12502779.
